As a reminder, the Kd is the free concentration of one partner at which half of the binding sites on the other are occupied at equilibrium, for simple one-to-one binding.

This note sets out measurements from patent publication US20250019427A1 (BYOMASS, published 2025).

Changes are numbered by the printed parent chain.

B1: Clone G IgG (antibody, V domains shown)
VH: QVQLVQSGAEVKKPGSSVKVSCKASGGTFQGYAISWARQAPGQGLEWMGGIIPPYATANYAQKFQGRVTITADESTSTAYMELSSLRSEDTAVYYCARGVGELHLDVWGQGTMVTVSS
VL: not shown
notes: IgG format
B2: Clone N IgG (antibody, V domains shown)
VH: QVQLVQSGAEVKKPGASVKVSCKASGYTFTDYGIFWVRQAPGQGLEWMGWITAYSGDTHYAQKLQGRVTMTTDTSTSTAYMELRSLRSDDTAVYYCVRDTQYGGSPYWGQGTLVTVSS
VL: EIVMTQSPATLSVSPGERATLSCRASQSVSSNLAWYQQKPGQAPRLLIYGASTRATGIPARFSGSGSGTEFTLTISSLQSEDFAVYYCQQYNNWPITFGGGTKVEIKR
notes: IgG format
B3: Clone B IgG (antibody, V domains shown)
VH: QVQLQESGPGLVKPSQTLSLTCTVSGGSISSGGIYWTWIRQHPGKGLEWIGAIAYSGSTYYNPSLKSRVTISVDTSKNQFSLKLSSVTAADTAVYYCARGIEYQHFDYWGQGTLVTVSS
VL: not shown
notes: IgG format; AAGA mutation in the Fc region stated for the FcRn test; also called GDF15 antibody agent Clone B
B4: Clone D IgG (antibody, V domains shown)
VH: B3 VH with S30N, I34Y, A54Y, Y60V, I101V, D107N, Y108E
VL: not shown
notes: IgG format
B5: Clone A IgG (antibody, V domains shown)
VH: B3 VH with S30T, I34S, T37S, A54V, I101V
VL: not shown
notes: IgG format
B6: Clone C IgG (antibody, V domains shown)
VH: B3 VH with I34Y, T37S, A54V, S58H, I101V, D107S, Y108L
VL: not shown
notes: IgG format; AAGA mutation in the Fc region stated for the FcRn test; also called GDF15 antibody agent Clone C
B7: Clone R IgG (antibody, V domains shown)
VH: B3 VH with K66E
VL: not shown
notes: IgG format
B8: Clone Q IgG (antibody, V domains shown)
VH: B3 VH
VL: not shown
notes: IgG format

T4 sequence (O95390 299-407 limits assumed): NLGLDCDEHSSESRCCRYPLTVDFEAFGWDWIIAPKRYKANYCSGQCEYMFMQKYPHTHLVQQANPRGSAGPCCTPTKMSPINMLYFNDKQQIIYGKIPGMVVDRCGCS

One assay deals with T1, GDF15 (Homo sapiens (Human), UniProt Q99988 30-308).
T1 sequence: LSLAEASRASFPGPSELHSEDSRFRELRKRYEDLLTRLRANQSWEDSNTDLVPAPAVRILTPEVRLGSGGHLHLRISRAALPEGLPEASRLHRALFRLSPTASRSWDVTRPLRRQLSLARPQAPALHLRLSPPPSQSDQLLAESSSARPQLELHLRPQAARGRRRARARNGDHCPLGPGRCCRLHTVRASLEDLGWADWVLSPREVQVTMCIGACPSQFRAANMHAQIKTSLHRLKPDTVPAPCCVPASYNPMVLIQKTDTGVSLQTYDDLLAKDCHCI
The assay can be described thus: cell-based or functional assay.
Turning to B1, the “GDF15 - GFRAL RET pERK IC50 (pM)” value was 66.7 pM and the “GDF15 - GFRAL-RET Luciferase IC50 (pM)” value came out at 97.1 pM.
As for B2, the “GDF15 - GFRAL RET pERK IC50 (pM)” value amounted to 99.7 pM.
As to B3, the “GDF15 - GFRAL RET pERK IC50 (pM)” value was 104 pM and the “GDF15 - GFRAL-RET Luciferase IC50 (pM)” value worked out at 66.2 pM.
Taken in the same sequence, the figures for B4 were 50.4 pM and 58.7 pM.
In the same order, the values of B5 are 102 pM and 75 pM.
In the same order, the values of B6 are 145 pM and 39.6 pM.

The next assay addresses T2, GDNF (UniProt P39905 78-211).
T2 sequence (looked up): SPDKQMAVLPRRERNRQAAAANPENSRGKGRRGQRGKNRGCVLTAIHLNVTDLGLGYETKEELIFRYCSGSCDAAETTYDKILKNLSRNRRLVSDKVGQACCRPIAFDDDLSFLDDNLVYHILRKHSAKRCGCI
Briefly: Octet BLI, IgG on tip, avid. Background: Biolayer interferometry detects binding as a change in optical thickness at a sensor tip.
Consider B1, for which the binding result is given as “no binding (tested: 100 nM)”.
B2 registered a Kd of 2.56 nM.
B3: the binding result is “no binding (tested: 100 nM)”.
With B7, the binding result is “no binding (tested: 100 nM)”.
On the same count and under the same terms, with B8 the entry was “no binding (tested: 100 nM)”; with B4, “no binding (tested: 100 nM)”.
In the case of B5, the binding result is “no binding (tested: 100 nM)”.
On the same count and under the same terms, then B6, with “no binding (tested: 100 nM)”.

Another assay has as its target GDF8 (UniProt O14793 267-375). Briefly: Octet BLI, IgG on tip, avid.
Consider B1, for which the binding result is reported as “no binding (tested: 100 nM)”.
Turning to B2, the binding result is recorded as “no binding (tested: 100 nM)”.
On the same count and under the same terms, then B3, with “no binding (tested: 100 nM)”.
Turning to B7, the binding result is “no binding (tested: 100 nM)”.
On to B8, for which the binding result is “no binding (tested: 100 nM)”.
The same measure, in the same setting: with B4 the entry was “no binding (tested: 100 nM)”; with B5, “no binding (tested: 100 nM)”.
Regarding B6, the binding result is given as “no binding (tested: 100 nM)”.

The next assay has as its target T3, GDF10 (UniProt P55107 369-478).
T3 sequence (looked up): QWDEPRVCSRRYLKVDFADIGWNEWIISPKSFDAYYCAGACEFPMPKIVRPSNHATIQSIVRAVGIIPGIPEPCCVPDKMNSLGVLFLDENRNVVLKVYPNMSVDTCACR
The assay can be described thus: Octet BLI, IgG on tip, avid.
The molecule B1 gave a dissociation constant (Kd) of 36.8 nM.
On to B2, for which the binding result is given as “no binding (tested: 100 nM)”.
The same measure, in the same setting: with B3 the entry was “no binding (tested: 100 nM)”.
As to B7, the binding result is on record as “no binding (tested: 100 nM)”.
The same measure, in the same setting: with B8 the entry was “no binding (tested: 100 nM)”.

The next assay concerns the target T4, GDF11 (UniProt O95390 299-407).
T4 construct: Also the GDF-11 ligand of the ActRIIB/SMAD reporter assay
Briefly: Octet BLI, IgG on tip, avid.
Regarding B1, the binding result is “no binding (tested: 100 nM)”.
On the same count and under the same terms, with B2 the entry was “no binding (tested: 100 nM)”; with B3, “no binding (tested: 100 nM)”.
The same measure, in the same setting: then B7, with “no binding (tested: 100 nM)”.
On the same count and under the same terms, then B8, with “no binding (tested: 100 nM)”; and B4, with “no binding (tested: 100 nM)”; and B5, with “no binding (tested: 100 nM)”.
Turning to B6, the binding result was “no binding (tested: 100 nM)”.

Another assay has as its target T5, Human Activin A Fc (human, UniProt P08476 311-426).
T5 sequence (looked up): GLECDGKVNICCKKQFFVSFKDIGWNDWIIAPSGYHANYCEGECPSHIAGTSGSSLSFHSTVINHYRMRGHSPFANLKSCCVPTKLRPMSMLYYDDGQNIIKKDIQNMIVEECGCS
Briefly: Octet BLI, IgG on tip, avid.
On to B1, for which the binding result is “no binding (tested: 100 nM)”.
B2: the binding result is listed as “no binding (tested: 100 nM)”.
On to B4, for which the affinity, expressed as Kd, was 7.87 nM.
Still for that read-out and setting: with B5 the figure was 7.34 nM; with B6, 6.48 nM.

Another assay addresses T6, Human Activin B (human, UniProt P09529 293-407).
T6 construct: Also used for the Activin B ligand of the ActRIIB/SMAD reporter assay, where the species is not restated
T6 sequence (looked up): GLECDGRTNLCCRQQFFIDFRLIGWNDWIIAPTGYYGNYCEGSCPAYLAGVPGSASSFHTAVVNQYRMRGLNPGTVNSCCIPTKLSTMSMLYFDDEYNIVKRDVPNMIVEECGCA
Briefly: Octet BLI, IgG on tip, avid.
Consider B1, for which the binding result was “no binding (tested: 100 nM)”.
On the same count and under the same terms, then B2, with “no binding (tested: 100 nM)”.
Take B3: the Kd stood at 145 nM.
Still for that read-out and setting: with B7 the figure was 188 nM; with B8, 172 nM.
With B4, the binding result was “no binding (tested: 100 nM)”.
Turning to B5, the binding result is “no binding (tested: 100 nM)”.
In the case of B6, the Kd is 132 nM.

The target in the next assay is T7, Human BMP9 (human, UniProt Q9UK05 320-429).
T7 sequence (looked up): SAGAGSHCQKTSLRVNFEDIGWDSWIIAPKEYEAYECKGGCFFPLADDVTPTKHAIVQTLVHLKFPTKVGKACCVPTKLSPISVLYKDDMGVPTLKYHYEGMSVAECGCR
Briefly: Octet BLI, IgG on tip, avid.
Turning to B2, the binding result is recorded as “no binding (tested: 100 nM)”.

The target of a further assay is T8, Human BMP10 (human, UniProt O95393 317-424).
T8 sequence (looked up): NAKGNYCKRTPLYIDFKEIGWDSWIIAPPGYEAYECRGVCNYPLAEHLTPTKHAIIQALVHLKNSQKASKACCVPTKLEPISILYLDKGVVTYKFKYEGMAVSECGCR
The assay can be described thus: Octet BLI, IgG on tip, avid.
Regarding B2, the binding result is “no binding (tested: 100 nM)”.
Turning to B8, the binding result was “no binding (tested: 100 nM)”.
Still for that read-out and setting: with B4 the entry was “no binding (tested: 100 nM)”; with B6, “no binding (tested: 100 nM)”.

A further assay concerns the target T9, Cyno GDF15 Fc (cyno, UniProt G7PWZ3 193-308).
T9 construct: also called cyno GDF15-Fc fusion
T9 sequence: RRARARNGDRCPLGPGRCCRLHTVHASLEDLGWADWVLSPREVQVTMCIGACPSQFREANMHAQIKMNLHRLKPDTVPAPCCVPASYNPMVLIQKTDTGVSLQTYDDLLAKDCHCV
The assay can be described thus: Octet BLI, IgG on AHC tip, avid. Here is the method:
(§1) Briefly, ForteBio affinity measurements were performed by loading IgGs on-line onto AHC sensors. Sensors were equilibrated off-line in assay buffer for 30 min and then monitored on-line for 60 seconds for baseline establishment. Sensors with loaded IgGs were exposed to 100 nM antigen for 3 minutes, and afterwards were transferred to assay buffer for 3 min for off-rate measurement. All kinetics were analyzed using the 1:1 binding model.
Regarding B1, the dissociation constant (Kd) amounted to 0.107 nM.
The same measure, in the same setting: then B2, with 0.219 nM; and B3, with 0.422 nM; and B4, with 0.141 nM.
Same read-out and setting: then B6, with 0.0862 nM.

Another assay deals with T10, Mouse GDF15 Fc (mouse, UniProt Q9Z0J7 189-303, limits assumed).
T10 construct: also called mouse GDF15Fc fusion
T10 sequence (looked up): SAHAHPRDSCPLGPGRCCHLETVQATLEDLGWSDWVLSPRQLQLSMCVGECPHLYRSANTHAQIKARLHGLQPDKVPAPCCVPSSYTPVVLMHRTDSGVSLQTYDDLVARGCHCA
Briefly: Octet BLI, IgG on AHC tip, avid. How it is done:
as §1
Take B1: binding was put at a Kd of 0.191 nM.
Still for that read-out and setting: with B2 the figure was 0.219 nM; with B3, 0.358 nM.
Same read-out and setting: with B4 the figure was 0.299 nM; with B6, 0.331 nM.

The target of another assay is T11, Rat GDF-15 Fc (rat, UniProt Q9Z0J6 189-303, limits assumed).
T11 sequence (looked up): T10 sequence (looked up) with A4L, Q63L, K75R, R110Q
Briefly: Octet BLI, IgG on AHC tip, avid. Here is the method:
as §1
On to B1, for which the equilibrium dissociation constant (Kd) stood at 1.01 nM.
The same measure, in the same setting: then B2, with 0.358 nM; and B3, with 0.621 nM.
Same read-out and setting: then B4, with 0.467 nM; and B6, with 0.437 nM.

A further assay addresses T3, GDF10. Briefly: Octet BLI, IgG on tip, avid; P.F. = binder with poor fit.
As to B4, the binding result is reported as “binds”.
Same read-out and setting: with B5 the entry was “binds”.

The next assay concerns the target T7, Human BMP9. The assay is described as above.
As for B1, the binding result is “binds”.
On the same count and under the same terms, then B3, with “binds”.
Same read-out and setting: then B7, with “binds”; and B8, with “binds”; and B4, with “binds”.
Regarding B5, the binding result is listed as “binds”.
On to B6, for which the binding result is “binds”.

In another assay the target is T8, Human BMP10. The assay is described as above.
Consider B1, for which the binding result is reported as “binds”.
Same read-out and setting: with B5 the entry was “binds”.
